Experiment [1] addresses HIV-1 full-length wild-type capsid protein (CA), residues 1-231 (HIV-1) (UniProt P03347). Description: dynamic light scattering.
Experiment [2] has the same target. As to the kind of experiment: dynamic light scattering. This is another data set of the same source.

Where two headings read alike, the source gives them in different places.

These results are taken from PMC3194004.

Regarding “HIV-1 full-length wild-type capsid protein (CA), residues 1-231 (from UniProt P03347 133-363) (natural protein)”, the stoichiometry N in experiment [1] and in experiment [2] was 2 in each case.

As a reminder, the stoichiometry N is the number of molecules, sites or subunits per partner or assembly.
